Results taken from US20140341939A1 (NATIONAL UNIVERSITY CORPORATION KOCHI UNIVERSITY, priority 2011, published 2014).
Where no end group is shown, it is not given here. [ ]: non-standard residue; d: D form. The star is where a group is joined. Biotin = O=C1N[C@H]2[C@H](CS[C@H]2CCCCC(=O)*)N1; βAla = NCCC(=O)O

Molecular target: T1, HLA-DR4 molecule (Homo sapiens, UniProt P01903+P01911, A100R/A169T/D86S/F76Y/I96L/K127E/L162R/M171V/N62H/P40V/Q125Y/R42H/S133A/S149N/S66Y/V115G/V209L/W38E)
T1 construct: expressed in transfected cells; host or cells: CH1-DRB1*04:05 (CH1-DR4) cells
Test: Peptide binding to HLA-DR4 molecule on CH1-DR4 cells with p-chlorophenol
Conditions: PCP added, 37° C. 4 hr, FITC-streptavidin (FIG. 31)
Description: CH1-DRB1*04:05 cells (CH1-DR4 cells) were suspended in 20% FCS IMDM ([…]) at 2×10^6/ml, so that 50 μl could provide 1×10^5 cells/well in a 96 well U plate. Then, 20 μM bTR174 (PSK^bio[…]^bioPβA: SEQ ID NO: 41) (biotinylation index peptide) was added at 100 μl per well, and IMDM containing 8 mM PCP was further added at 50 μl per well, and finally, CH1-DR4 cells were added at 50 μl (1×10^5/well) and the mixture was incubated at 37° C. for 4 hr. Free peptide was removed by centrifugation, the cells were stained with FITC-streptavidin, and measured by flow cytometer. […] By adding a competitive peptide, which is generated by adding a peptidase resistant sequence to the terminal of an unlabeled peptide, to this experiment system, the binding activity of the unlabeled peptide can be quantitatively measured.

PSK^bioREFKLSKVWRDQK^bioPβA (PSK(Biotin)REFKLSKVWRDQK(Biotin)P[βAla]) [bTR174, biotinylation index peptide]
binding of biotin-labeled peptide to HLA-DR4 molecule: replaced a peptide endogenously bound to an HLA-DR4 molecule, in a PCP concentration dependent manner
